Numbering of substitutions follows the chain as printed.
B1: IDS-A3, reconstructed ancestral iduronate-2-sulfatase (last common ancestor of primates and rodents), co-expressed with HsFGE (enzyme)
chain: SETQANSTTDALNVLLIIVDDLRPSLGCYGDKLVRSPNIDQLASHSLLFQNAFAQQAVCAPSRVSFLTGRRPDTTRLYDFNSYWRVHAGNFSTIPQYFKENGYVTMSVGKVFHPGISSNHSDDSPYSWSFPPYHPSSEKYENTKTCRGPDGELHANLLCPVDVADVPEGTLPDKQSTEQAIRLLEKMKTSASPFFLAVGYHKPHIPFRYPKEFQKLYPLENITLAPDPQVPDGLPPVAYNPWMDIRQREDVQALNISVPYGPIPVDFQRKIRQSYFASVSYLDTQVGHLLSALDDLQLANSTIVAFTSDHGWALGEHGEWAKYSNFDVTTRVPLMFYVPGRTAPLPEAGEKLFPYLDPFDSASELMEPGRQTMDLVELVSLFPTLAGLAGLQVPPRCPVPSFHVELCREGQNLLKHFRFHDLEEDPHLHGNPRELIAYSQYPRPADSPQWNSDKPSLKDIKIMGYSIRTIDYRYTVWVGFNPDEFLANFSDIHAGELYFVDSDPLQDHNMYNDSQGGDLPQSLMP
modifications: cysteine 84 post-translationally modified to formylglycine (fGly); N-linked glycans
B2: IDS-A3_T354A, variant of ancestral IDS-A3 with the reversed mutation at position 354, co-expressed with HsFGE (enzyme)
chain: B1 chain with T329A
modifications: cysteine 84 post-translationally modified to formylglycine (fGly); N-linked glycans
B3: human iduronate-2-sulfatase (hIDS), co-expressed with human formylglycine-generating enzyme (HsFGE) (enzyme)
chain: SETQANSTTDALNVLLIIVDDLRPSLGCYGDKLVRSPNIDQLASHSLLFQNAFAQQAVCAPSRVSFLTGRRPDTTRLYDFNSYWRVHAGNFSTIPQYFKENGYVTMSVGKVFHPGISSNHTDDSPYSWSFPPYHPSSEKYENTKTCRGPDGELHANLLCPVDVLDVPEGTLPDKQSTEQAIQLLEKMKTSASPFFLAVGYHKPHIPFRYPKEFQKLYPLENITLAPDPEVPDGLPPVAYNPWMDIRQREDVQALNISVPYGPIPVDFQRKIRQSYFASVSYLDTQVGRLLSALDDLQLANSTIIAFTSDHGWALGEHGEWAKYSNFDVATHVPLIFYVPGRTASLPEAGEKLFPYLDPFDSASQLMEPGRQSMDLVELVSLFPTLAGLAGLQVPPRCPVPSFHVELCREGKNLLKHFRFRDLEEDPYLPGNPRELIAYSQYPRPSDIPQWNSDKPSLKDIKIMGYSIRTIDYRYTVWVGFNPDEFLANFSDIHAGELYFVDSDPLQDHNMYNDSQGGDLFQLLMP
modifications: cysteine 84 post-translationally modified to formylglycine (fGly); N-linked glycans
notes: iduronate-2-sulfatase (IDS), human; 550-residue protein; also called human IDS; hIDS + HsFGE

Target: recombinant human mannose-6-phosphate receptor (M6PR) (human, UniProt P11717 41-2491)
Assay: SPR; Biacore T200, single cycle kinetics mode; IDS enzymes co-expressed with HsFGE on recombinant human M6P receptor; who was immobilised is not given in the source
Settings: both partners purified

Binder	Kd [nM]
B1	26
B2	46
B3	32
